{"source": "paper PMC3796546", "biological_target": "T1, Smt3 (SUMO), endogenous, Q12306", "T1 chain": "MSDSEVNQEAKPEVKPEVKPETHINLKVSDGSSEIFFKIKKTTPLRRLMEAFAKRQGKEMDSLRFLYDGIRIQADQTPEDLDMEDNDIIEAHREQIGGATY", "assay": "co-IP with mass spectrometry", "settings": "chain shown with the change, cross-linked in vivo with formaldehyde, p value 0.04637"}
{"binder": "N-terminal 3xHA-tagged wild-type Irc20, Q06554 C1239A (protein) MSAVGALLAREYNVTAEKCDFFLENGSFDSVIAALPALNQEQETVTQKVSKNGKELINVASVNIEIPERISLSNNGRQLFKFIVDIEILPCENDNEATLVVSSDSVSLFQIGFKMENNSKIAVDKQLPLILDICAHKNQERALRNQLENRKSLERKPSRKRRKKNSNVNDPEKLLKSRIHELSLSYKDFECSPVVFRYNDSSLTWVLSFNLKLKFLNNKFNRFSVEANQILDLTFSNRDENEFERYHKHSHIHSNFIQKQFISQILEYSKDRLSKIKPFLPQSIPDLKVNLLPFQRESVEWMLIKEGHGNSLSDTPTVIDEVGLIDFMNEYYAYGYELIARSPDEVGPSLLWNKLTGYILTTEDAAHLYNQYRKERLSGDYPVCAKGVLAEEMGLGKTIEILSLILLNRRKLKDSEATFIDDENRTITKTKTTLIICPNAILKQWLEEIELHANSLKWYTYRGYNEIMKDCKTVDEAVQQLCQYDIIVTSYNIIATEVHHAEFNRSIRSRRLKSPKYDYSSPLALMQFYRIILDEVQMLRSSSTYSAKCTSLLHRIHTWGVSGTPIQNIYNFRMIMSYLKLHPFCDEVDFIRTLQEEIKLRNEAKDYTSNDFVCQLKGVRFSIKDCMNIFYRYDLCIRHSKANVASQIHIPRQHNFIIPLEFAPIEWDNYLNLWNNFLELSGYNSDGSGSPRVSNAFLNEWLSRLRYICCHALFPEILSTRQKRLHGHLSRISNIDDILISMRMDAFDSLIGYYRERFHLSIKQAQYELEISNTPAKALESFIKIRDDLMIHIRQKFNVEDPFDKSLNLSEDEDEHMDERFGEKETSSGDESDREINGAKNHDNHNNDGMLSNHLKKKGLRAMMNLLHDCYFFLGSVYYNLGTRKLEEADDKHRKEKTEEVVYSDVFPKNELEEIEENRLLEQENYANAEILRKSILSSEARKVDMTIKMARTKFAPMTSNIPLRLINIEFDHKNDYSSNLAVSRCFKSLSKLIEGLNEQTKNFNELLDELLIIIYEPVHRTEDDDSTNKIIGNEEYSTSIDSQDKIFSLLGCLEIILQNRDNILTSESEVKIPKHLVPEGSIISKYQKQLLNSLRLISGTPLRTVFDELKNSRIVRRISSSNESESTIQNFEDYLLQYEVESKSLFKYNKQVRESLKILGSIYNAKTEYYSQLQRISDSLVSLHSLSAPQLSHLIRTINKSLGGTLDAKINNIESRLIYLKNLSRLKDTLNDNQILSASICLGEVEIGAIIKCGHYFCKSCILTWLRAHSKCPICKGFCSISEVYNFKFKNSTEKREKEIQEPRREGADSSQDNSNENSIISNMSEVEKLFGNKYEQFHQINEVHQIHIKESFGAKIDFVIKLISYLRLKSEQENADPPQVILYSQKTEYLKVIGKVLKLYHIEHLACLSNTANVGETINNFKRQPSVTCLLLNVKTLGAGLNLINAKHIFLLDPILNNSDELQAMGRNNRIGQDEETFVWNFMIRNTVEENILRYKCILEERKRKEKSKKGDKYDEAQDETDNEESDDAKFEISVVDQEVSNEHLWNCFFHGSD", "values": [{"measurement": "ratio to parent", "value": "> 11"}, {"measurement": "other: sum", "setting": "parent: 0", "value": 11}]}
